Assay results reported in the supplement of paper PMC6757056.
± gives the standard deviation of the averaged measurements.

B1: library; a variant is named by its letters at N, in order (parent)
chain: GCUGUCACCGGUGCUUGGUACGUUAUAUUCAGCCGGUCUGAUGAGUCUNNNNNNAGACGAAACAGC

Tests used:
(6R,S)-folinic acid [1] = variants of: B1; assay: FACS-Seq fitted mean relative fluorescence mCherry/BFP without ligand (log10 relative fluorescence); HEK293T overexpressing SLC46A1; higher = higher reporter protein expression; conditions: without (6R,S)-folinic acid; ligand present: no
Outline: (§1)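 Fluorescence comes from a normal fit to bin counts, normalized against controls. HEK293T libraries lentivirally given a ribozyme-switch mCherry reporter and an EF1α-BFP marker were enriched, incubated 48 h with or without ligand, and sorted by mCherry/BFP into 6 bins. Bin genomic DNA was PCR-amplified, barcoded and sequenced on MiSeq. The log10(mCherry/BFP) mean was scaled to five spiked-in control ribozymes.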

(6R,S)-folinic acid [2] = variants of: B1; assay: normalized RNA/DNA level without ligand (relative to sTRSVctl = 100) (log10 (% of sTRSVctl)); HEK293T overexpressing SLC46A1; higher = less ribozyme self-cleavage, higher mRNA level; conditions: without (6R,S)-folinic acid; ligand present: no
Outline: (§2)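 RNA level was computed as RNA reads over DNA reads divided by a spiked-in non-cleaving sequence or by the top sequences, then scaled and log-transformed. Scaling was ×100 with log10, the top group was 25 sequences, and the threshold was ≥100 DNA reads. The reads came from HEK293T cells transfected at 4 µg per 6-well well with ribozyme switch library plasmids (mCherry, or eGFP in some ligand experiments). Total RNA was extracted with EDTA 72 h after transfection, with any ligand added 1 h before it.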

(6R,S)-folinic acid [3] = variants of: B1; assay: FACS-Seq fitted mean relative fluorescence mCherry/BFP with ligand (log10 relative fluorescence); HEK293T overexpressing SLC46A1; ligand concentration (+) FACS-Seq: 6 mM; higher = higher reporter protein expression; conditions: with (6R,S)-folinic acid; ligand present: yes
Outline: as §1

(6R,S)-folinic acid [4] = variants of: B1; assay: normalized RNA/DNA level with ligand (relative to sTRSVctl = 100) (log10 (% of sTRSVctl)); HEK293T overexpressing SLC46A1; ligand concentration (+) RNA-Seq: 6 mM; higher = less ribozyme self-cleavage, higher mRNA level; conditions: with (6R,S)-folinic acid; ligand present: yes
Outline: as §2

| Variant | FACS-Seq fitted mean (log10) ((6R,S)-folinic acid [1]) | normalized RNA/DNA level without ligand (log10) ((6R,S)-folinic acid [2]) | FACS-Seq fitted mean (log10) ((6R,S)-folinic acid [3]) | normalized RNA/DNA level with ligand (log10) ((6R,S)-folinic acid [4]) |
| --- | --- | --- | --- | --- |
| UUCAUG | 0.548 ± 0.083 | 1.86 ± 0.014 | 0.703 ± 0.25 | 1.97 ± 0.067 |
| GUCUGG | 0.433 ± 0.03 | 2.027 ± 0.0089 | 0.385 ± 0.25 | 2.07 ± 0.063 |
| GUCUGC | 0.325 ± 0.12 | 2.025 ± 0.0038 | 0.295 ± 0.085 | 2.07 ± 0.053 |
| UUCUGG | 0.429 ± 0.029 | 1.887 ± 0.0036 | 0.696 ± 0.12 | 2.03 ± 0.037 |
| UUCUGC | 0.411 ± 0.14 | 2.049 ± 0.02 | 0.336 ± 0.038 | 2.04 ± 0.052 |
| GUGUAC | -0.753 ± 0.24 | 1.942 ± 0.0035 | -0.684 ± 0.34 | 2.005 ± 0.0037 |
| GUGUAA | 0.21 ± 0.21 | 1.957 ± 0.0042 | 0.383 ± 0.18 | 2 ± 0.041 |
| GUGUAG | 0.435 ± 0.018 | 1.899 ± 0.0022 | 0.514 ± 0.18 | 1.998 ± 0.016 |
| GUCGUA | 0.666 ± 0.21 | 2.0187 ± 0.00087 | 0.497 ± 0.34 | 2.01 ± 0.025 |
| AUUAAA | 0.22 ± 0.063 | 1.974 ± 0.0062 | 0.296 ± 0.21 | 1.992 ± 0.0089 |
| UUGCUA | 0.353 ± 0.027 | 2.002 ± 0.0079 | 0.377 ± 0.051 | 2.04 ± 0.026 |
| CUGUAU | 0.306 ± 0.094 | 1.981 ± 0.0073 | 0.479 ± 0.11 | 2 ± 0.021 |
| UUGGGG | 0.207 ± 0.029 | 1.824 ± 0.0037 | 0.521 ± 0.12 | 2.02 ± 0.036 |
| UUGGGU | 0.184 ± 0.18 | 1.943 ± 0.0059 | 0.455 ± 0.16 | 1.98 ± 0.033 |
| GUCACC | 0.379 ± 0.15 | 2.07 ± 0.021 | 0.061 ± 0.042 | 2.063 ± 0.013 |
| GUCACG | 0.0918 ± 0.029 | 2.024 ± 0.0084 | 0.228 ± 0.096 | 2.042 ± 0.015 |
| AUGGAC | 0.279 ± 0.031 | 1.955 ± 0.0055 | 0.259 ± 0.12 | 1.99 ± 0.022 |
| AUGGAG | 0.271 ± 0.039 | 1.735 ± 0.0043 | 0.622 ± 0.21 | 1.97 ± 0.02 |
| AUGGAA | 0.0999 ± 0.019 | 1.919 ± 0.0071 | -0.0772 ± 0.045 | 1.993 ± 0.0063 |
| UUGGAA | 0.241 ± 0.03 | 1.9 ± 0.025 | 0.528 ± 0.17 | 1.99 ± 0.029 |
| UUGGAG | -0.00192 ± 0.0051 | 1.71 ± 0.035 | 0.315 ± 0.1 | 1.99 ± 0.016 |
| GUUCGC | 0.511 ± 0.017 | 2.07 ± 0.024 | 0.368 ± 0.16 | 2.05 ± 0.025 |
| GUUCGG | 0.155 ± 0.11 | 2.003 ± 0.0021 | 0.178 ± 0.021 | 1.985 ± 0.0024 |
| GUUAGG | 0.206 ± 0.031 | 1.938 ± 0.0023 | 0.301 ± 0.51 | 2 ± 0.031 |

| Variant | FACS-Seq fitted mean (log10) ((6R,S)-folinic acid [1]) | normalized RNA/DNA level without ligand (log10) ((6R,S)-folinic acid [2]) | FACS-Seq fitted mean (log10) ((6R,S)-folinic acid [3]) | normalized RNA/DNA level with ligand (log10) ((6R,S)-folinic acid [4]) |
| --- | --- | --- | --- | --- |
| AUCUUA | 0.327 ± 0.012 | 2.042 ± 0.0064 | 0.337 ± 0.14 | 2.03 ± 0.043 |
| AUCUUG | 0.284 ± 0.023 | 1.952 ± 0.0043 | 0.288 ± 0.16 | 2.01 ± 0.028 |
| AUUAUU | 0.191 ± 0.11 | 2.02 ± 0.023 | 0.497 ± 0.056 | 2.03 ± 0.024 |
| UUGUUA | 0.514 ± 0.052 | 2.03 ± 0.014 | 0.793 ± 0.16 | 2.07 ± 0.031 |
| GUUCCA | 0.262 ± 0.14 | 2.0222 ± 0.00044 | 0.191 ± 0.16 | 2.03 ± 0.054 |
| GUCCGA | 0.497 ± 0.025 | 2.017 ± 0.0041 | 0.383 ± 0.061 | 2.007 ± 0.0092 |
| GUCCGG | -0.054 ± 0.18 | 2.042 ± 0.011 | -0.0351 ± 0.41 | 2.05 ± 0.063 |
| AUGAGU | 0.287 ± 0.0094 | 1.788 ± 0.017 | 0.639 ± 0.18 | 1.97 ± 0.04 |
| AUGAGC | -0.023 ± 0.066 | 1.998 ± 0.0094 | 0.192 ± 0.3 | 2.03 ± 0.028 |
| AUGAGA | 0.466 ± 0.025 | 1.944 ± 0.014 | 0.537 ± 0.077 | 2.014 ± 0.016 |
| GUCUAU | 0.0107 ± 0.49 | 2 ± 0.014 | 0.473 ± 0.4 | 2.02 ± 0.026 |
| UUCACU | -0.112 ± 0.034 | 2.059 ± 0.0067 | -0.112 ± 0.28 | 2.041 ± 0.02 |
| CUGCAG | 0.542 ± 0.11 | 1.91 ± 0.021 | 0.679 ± 0.4 | 1.977 ± 0.0074 |
| GUGAAA | -0.0108 ± 0.075 | 1.956 ± 0.0062 | 0.313 ± 0.017 | 1.981 ± 0.016 |
| GUGAAG | 0.207 ± 0.012 | 1.9352 ± 0.0013 | 0.436 ± 0.27 | 2.02 ± 0.043 |
| GUGAAU | 0.0592 ± 0.055 | 1.944 ± 0.0083 | 0.217 ± 0.099 | 2 ± 0.043 |
| GUGAUA | 0.573 ± 0.073 | 1.97 ± 0.017 | 0.371 ± 0.036 | 2 ± 0.022 |
| GUCUCG | 0.378 ± 0.032 | 1.997 ± 0.0037 | 0.197 ± 0.26 | 2.003 ± 0.013 |
| AUCGAG | 0.076 ± 0.01 | 1.813 ± 0.017 | 0.217 ± 0.22 | 2 ± 0.032 |
| AUCGAC | 0.0463 ± 0.0065 | 2.041 ± 0.0079 | 0.0476 ± 0.024 | 2.01 ± 0.03 |
| AUGAAG | 0.432 ± 0.049 | 1.836 ± 0.0092 | 0.578 ± 0.14 | 1.99 ± 0.048 |
| AUGAAA | 0.535 ± 0.016 | 1.944 ± 0.0099 | 0.656 ± 0.15 | 1.98 ± 0.033 |
| AUGAAU | 0.232 ± 0.017 | 1.929 ± 0.013 | 0.0739 ± 0.05 | 2 ± 0.022 |
| GUCGAU | 0.179 ± 0.051 | 1.986 ± 0.015 | 0.225 ± 0.17 | 2.02 ± 0.026 |

| Variant | FACS-Seq fitted mean (log10) ((6R,S)-folinic acid [1]) | normalized RNA/DNA level without ligand (log10) ((6R,S)-folinic acid [2]) | FACS-Seq fitted mean (log10) ((6R,S)-folinic acid [3]) | normalized RNA/DNA level with ligand (log10) ((6R,S)-folinic acid [4]) |
| --- | --- | --- | --- | --- |
| GUCGAC | 0.479 ± 0.017 | 1.965 ± 0.0058 | 0.62 ± 0.022 | 2.025 ± 0.0097 |
| UUGAGA | 0.325 ± 0.084 | 1.841 ± 0.013 | 0.468 ± 0.01 | 1.993 ± 0.0082 |
| UUGAGG | 0.275 ± 0.1 | 1.86 ± 0.025 | 0.336 ± 0.18 | 2.006 ± 0.0026 |
| GUGGUG | 0.383 ± 0.21 | 1.92 ± 0.024 | 0.306 ± 0.32 | 2 ± 0.043 |
| GUGGUU | 0.311 ± 0.089 | 2.014 ± 0.0041 | 0.443 ± 0.013 | 2.02 ± 0.037 |
| AUCGGA | 0.397 ± 0.17 | 1.99 ± 0.0013 | 0.345 ± 0.48 | 2 ± 0.039 |
| GUCAGG | 0.338 ± 0.065 | 1.938 ± 0.015 | 0.29 ± 0.076 | 1.974 ± 0.018 |
| AUGCAC | 0.724 ± 0.038 | 2.001 ± 0.0052 | 0.703 ± 0.1 | 2.014 ± 0.01 |
| AUGCAA | 0.349 ± 0.0069 | 1.9632 ± 0.00072 | 0.36 ± 0.083 | 1.976 ± 0.011 |
| CUGAAA | 0.38 ± 0.12 | 1.986 ± 0.0076 | 0.578 ± 0.071 | 2 ± 0.014 |
| GUCCAG | 0.335 ± 0.07 | 1.966 ± 0.011 | 0.103 ± 0.16 | 1.975 ± 0.018 |
| AUGAUG | 0.408 ± 0.071 | 1.87 ± 0.023 | 0.544 ± 0.23 | 1.98 ± 0.023 |
| AUGAUU | 0.418 ± 0.17 | 1.989 ± 0.0036 | 0.334 ± 0.023 | 2.02 ± 0.027 |
| CUGGAA | 0.184 ± 0.035 | 1.9175 ± 0.00021 | 0.243 ± 0.021 | 1.97 ± 0.028 |
| CUGGAU | 0.302 ± 0.025 | 1.966 ± 0.018 | 0.179 ± 0.028 | 2.02 ± 0.022 |
| CUGGGA | 0.446 ± 0.08 | 2.006 ± 0.014 | 0.348 ± 0.35 | 2.03 ± 0.047 |
| AUUCAG | 0.281 ± 0.045 | 1.962 ± 0.0047 | 0.431 ± 0.097 | 2.009 ± 0.018 |
| AUUAGG | 0.125 ± 0.18 | 1.9 ± 0.023 | 0.123 ± 0.074 | 2.01 ± 0.028 |
| AUUAGA | 0.0629 ± 0.005 | 1.965 ± 0.004 | -0.224 ± 0.063 | 2.01 ± 0.033 |
| CUGAGA | -0.345 ± 0.055 | 1.985 ± 0.0047 | -0.472 ± 0.062 | 1.99 ± 0.035 |
| GUCAUG | 0.406 ± 0.047 | 2.004 ± 0.01 | 0.165 ± 0.087 | 2.03 ± 0.027 |
| UUUACC | 0.636 ± 0.0052 | 1.996 ± 0.018 | 0.724 ± 0.077 | 1.97 ± 0.036 |
| UUUACU | 0.0671 ± 0.017 | 2.032 ± 0.0085 | -0.0776 ± 0.03 | 2.033 ± 0.013 |
| AUCAGU | -0.132 ± 0.056 | 1.97 ± 0.021 | -0.238 ± 0.53 | 1.996 ± 0.017 |
